Tested on: GST-NR2F6 fusion protein, full-length, wild-type
Sequence (chain, as listed by the source): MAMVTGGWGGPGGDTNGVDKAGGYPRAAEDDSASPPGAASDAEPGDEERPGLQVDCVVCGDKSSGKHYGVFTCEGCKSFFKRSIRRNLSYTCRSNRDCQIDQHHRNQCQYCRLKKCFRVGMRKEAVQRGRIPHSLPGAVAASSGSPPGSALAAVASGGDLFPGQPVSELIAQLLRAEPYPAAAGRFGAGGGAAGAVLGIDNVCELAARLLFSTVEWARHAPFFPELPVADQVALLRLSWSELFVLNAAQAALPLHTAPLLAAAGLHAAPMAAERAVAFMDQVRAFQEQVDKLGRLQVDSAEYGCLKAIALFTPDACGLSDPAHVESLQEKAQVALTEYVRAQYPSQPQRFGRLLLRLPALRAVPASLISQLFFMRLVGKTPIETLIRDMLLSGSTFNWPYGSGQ

B1: recombinant PKCzeta (enzyme, UniProt Q05513 1-592, looked up, species assumed)
Protein kinase C zeta type: MPSRTGPKMEGSGGRVRLKAHYGGDIFITSVDAATTFEELCEEVRDMCRLHQQHPLTLKWVDSEGDPCTVSSQMELEEAFRLARQCRDEGLIIHVFPSTPEQPGLPCPGEDKSIYRRGARRWRKLYRANGHLFQAKRFNRRAYCGQCSERIWGLARQGYRCINCKLLVHKRCHGLVPLTCRKHMDSVMPSQEPPVDDKNEDADLPSEETDGIAYISSSRKHDSIKDDSEDLKPVIDGMDGIKISQGLGLQDFDLIRVIGRGSYAKVLLVRLKKNDQIYAMKVVKKELVHDDEDIDWVQTEKHVFEQASSNPFLVGLHSCFQTTSRLFLVIEYVNGGDLMFHMQRQRKLPEEHARFYAAEICIALNFLHERGIIYRDLKLDNVLLDADGHIKLTDYGMCKEGLGPGDTTSTFCGTPNYIAPEILRGEEYGFSVDWWALGVLMFEMMAGRSPFDIITDNPDMNTEDYLFQVILEKPIRIPRFLSVKASHVLKGFLNKDPKERLGCRPQTGFSDIKSHAFFRSIDWDLLEKKQALPPFQPQITDDYGLDNFDTQFTSEPVQLTPDDEDAIKRIDQSEFEGFEYINPLLLSTEESV
- phosphorylation (32P incorporation), in vitro protein kinase assay: (but not PKCzeta or PKA)
